The data set in a line: label from the status in PepcDB records.
In the case of “MAGKLDPYRRKRHFGATPEPEGAHGHHAKAGAKPAARASARGTHPLRFVIQEHHARRLHYDFRLELDGTLKSWAVPKGPSFDPSVKRLAVHVEDHPLEYASFEGQIPEGHYGAGSVVVWDEGTWTPDGGVAQAREGYRAGKLTFRLDGEKLHGGWALVRSGRQEGRQEQWLLIKERDDDARSMDEFDVVGERPGSVHDGAASARADAKNGSARGSRSGQREKSGTSAARHDDHRHDGHAGTPIDPSRIEGAVRAPLPEHVAPQLATLVDGPPTQGDWCYELKFDGYRILARISGKGARRHVKLMTREGRDWTAKLRAQRDALAALDVDAAWLDGEAVVLGKNGLPDFQALQNAFGGGHSDEITLFVFDLPYLDGYDLRDAPLTARRALLEPLFADSDPTRLRFSPDLGNDVASLIASACDTGLEGLIGKRAESRYRAGRSPAWIKLKCRRRQEFVIGGYTEPSGSRHGFGALLLGVHEPAADGKRRRGPGPLRYVGRVGTGFDTRMLDRLTPILRKHERDTMPFDPPPRERSRTPVHWIEPVLVAECEFAEWTGDGIVRQAAFIALREDKPAARIVREVPKHTETEVQMEQRQTTRHERHKPKGAARAERDTSDASDGKHPARSRGSRRAEADDTGPDQLGRVRISHPERVIDSHSGTRKIDLARYWQWVAPWLLRDLKGRPVSLVRAPGDISGELFFQKHAERREIPFVTQHEGLDPGHGPLLSLDSVDALLGAAQMGTIELHTWNAHASNIERPDRIVFDLDPDPALPWSAMIDAAQLVRGLLDELGLISFCKTSGGKGLHVVVPITRHMGWDEVKDFSRAVAQHVAGALPDRFTATMGPKHRRGKIFIDYLRNGRGASTIAAYSVRARPGLGVSVPLRWDEVPDTTGGAQWTIDTLHERLDRLKRDPWDGYDDTRQRITAQMRARLGTS”, the protein production result is listed as “failed”.

Turning to “MAGKRKKPKDTDLPPRVYRGKSKYEFHPARGGSISLCPLDAPISQVWSDYEKVNDRLPEKVTLNKLTEQFLHSMDFCELAIETQKDYRKYSLKLLPVFGEMSPDNIRPEHIRKYMDKRGITSRTQANREKTFLSRVYRWGYERGMVKGNPCRGVKQFTEKARDRYITDEEYDAVYQVAPDVVRVAMEIAYLCLARQADVLALRRDQLREPGIYIKQGKTAARQIKAWSERLRDAITLAESLPLKSGISSVYIIHQRTGLRYTRDGFNSKWRKAREVAKKTYPELDFNFTFHDLKAKGVSDLEGTLSEKQAISGHKNMGQTARYDRKIKIVPVVGNQKK”, the protein production result is given as “failed”.

For the sequence “MAGLPGSVALIIVATAVIWKGSAYFERAAERLSKYYGLPVAVHGAIVVAVGSSFPEISSVVISTVIHDEFSLGVGAIVGSAIFNLLVIPALAALSSEELRSTRDIVHKDAQFYIISVLILFIVFALGATYVPGGTNRAAILTPTLVAVPLMAYGIYVFLHQQDASEHVADETHSVRPGREWGMLGVGLVIITVGVEGMVQGALSLGVIFDTPTFLWGLTVIAAGTSLPDAFVSVRAAKDDDSVTSLTNVLGSNTFNLLVAIPVGVLLAGRATIDFLVAIPTMGFLGAATLVFIVFIRTDLELTDREAYTLLGLYVVFVCWMALESVGLIETVSGI”, the protein production entry is reported as “failed”.

For “MAGNFDSEERSSWYWGRLSRQEAVALLQGQRHGVFLVRDSSTSPGDYVLSVSENSRVSHYIINSSGPRPPVPPSPAQPPPGVSPSRLRIGDQEFDSLPALLEFYKIHYLDTTTLIEPVSRSRQGSGVILRQEEAEYVRALFDFNGNDEEDLPFKKGDILRIRDKPEEQWWNAEDSEGKRGMIPVPYVEKYRPASASVSALIGGNQEGSHPQPLGGPEPGPYAQPSVNTPLPNLQNGPIYARVIQKRVPNAYDKTALALEVGELVKVTKINVSGQWEGECNGKRGHFPFTHVRLLDQQNPDEDFS”, the protein production result is recorded as “failed”.

Take “MAGRRRRPTTDRTIGGLSFSQRELRDLLVAWLALGLAFTFFLEREFRRIVFGQFGGLSGAEIASTFAVSLLTVGVGFLLHELAHKVVAVRFGQIAAFKADYRMLGFAVLGGLVGFLFAAPGAVVHRGRLTAKQHGLIAVAGPVTNLALAVVFLVPFFLTASMGIGGFLRELTEMGLQINLLLAGFNMLPFGPLDGRTVREWSTPVFLAVAVPSILLGVGALFVL”: the protein production entry was “failed”.

As for “MAGSVGEETEPEWIKRVKLEGAVPCLKPDDNCKNGWTTPSPDTFMVRGPKYFSDKVKIPAGDFLLKPLGFDWIKGPKKLSEILSYPSSRIRKVIDEEFQKDGTKPFVWAFNLQLPHKDNYSAVAYFVTTEPILEGSLMDRFLKGDDGFKKSRLKLIANIVKGPWIVRKAVGEQAICVIGRALSCKYVSGENFVEIDVDIGSSMVASAIVHLAFGYVTTLTVDLAFLIESQTEAELPEKLLGAVRFSELQTESATSIELSSSTSNDQWDQTTSERSSWWKSIGNGFSNLLNQDTANMNNTSHGDIQKDEHVQKQ”, the protein production result is listed as “failed”.

For “MAHEAQKAIARNSLLIRSLPEQHVDALLSQAVWRSYDRGETLFLQEEKAQAIHVVIDGWVKLFRMTPTGSEAVVSVFTRGESFGEAVALRNTPYPVSAEAVTPCEVMHIPSPVFVSLMRRDPEICISILATTFGHLHSLVAQLEQLKAQTGAQRVAEFLLELCDCDTGACEVTLPYDKMLIAGRLGMKPESLSRAFSRLKAAGVTVKRNHAEIEDIALLRDYAESDPADSWSKS”, the protein production entry was “not failed”.

With “MAHGIPSQGKVTITVDEYSSNPTQAFTHYNINQSRFQPPHVHMVDPIPYDTPKPAGHTRFVCISDTHSRTDGIQMPYGDILLHTGDFTELGLPSEVKKFNDWLGNLPYEYKIVIAGNHELTFDKEFMADLVKQDYYRFPSVSKLKPEDFDNVQSLLTNSIYLQDSEVTVKGFRIYGAPWTPWFNGWGFNLPRGQSLLDKWNLIPEGIDILMTHGPPLGFRDWVPKELQRVGCVELLNTVQRRVRPKLHVFGGIHEGYGIMTDGYTTYINASTCTVSFQPTNPPIIFDLPNPQGS”, the protein production result is reported as “failed”.

For the sequence “MAHGPTRQKITLTTEVAAEPAEVWARIGDFQDMSWHPAVHSSTGENGNEIDATRVLSLGAADGPTISEILYKYSDEKMSYSYRITDVLVEVLPVTNYSSHLTVKARDGGGSVIEWRGAFYRGYPNNDPPEDLEHHHHHH”, the protein production entry was “failed”.

For the sequence “MAHHHHHHMRKIYIAGPAVFNPDMGASYYNKVRELLKKENVMPLIPTDNEATGALDIRQKNIQMIKDCDAVIADLSPFRGHEPDCGTAFEVGYAAALNKMVLTFTSDRRNMREKYGSEVDKDNLRVEGFGLPFNLMLYDGVEVFDSFESAFKYFLANFPSK”, the protein production entry is “not failed”.

In the case of “MAHHHHHHSLDAAAATLPRKSGSVDRLVRLAEADMAGVNRLITDRMQSDVAIIPALAEHLIAAGGKRLRPLMTVAAARLAGADNDHFQKLAAAVEFIHTATLLHDDVVDGSQLRRGKVAAHLIWGGAQSVLVGDFLFARAFELMVETNSMKALEILARASRVIAEGEVLQLMRSHDLNLSQAVYLEIIQAKTAELFAAASEAGAVSAGVDVAKSEALRDYGLNLGLAFQLADDALDYGGATETLGKNAGDDFREGKATLPLLLAIARSGPREAEFWERAIGRREQTEADFRRARELIIGSGALDATLDLAADYADKAKAALAMFPANDWREALEELADFAVSRRA”, the protein production entry is listed as “not failed”.

As for “MAHKKGLGSTRNGRDSQAKRLGVKRYEGQVVRAGNILVRQRGTRFKPGKNVGMGRDFTLFALVDGVVEFQDRGRLGRYVHVRPLA”, the protein production entry is on record as “not failed”.

As for “MAIAFHTFLLQLLLFFFASFAEANDSRKTYLVQMKVGGHRYGSSSGHQELLGEVLDDDSYKESFTGFSASLTPRERQKLMSKTTTVSSRRREVLEVSRSRNLKLQTTRSWDFMNLTLKAERNPENESDLVVAVIDSGIWPYSELFGSDSPPPPGWENKCENITCNNKIVGARSYYPKKEKYKWVEEKSVIDVTGHGTHVASIVAGRKVEKAGYFGLAEGTMRGGVPNAKIAVYKTCWRVIRKNGREDSVCREDNILKAIDDAIADKVDIISYSQGFQFTPLQKDKVSWAFLRALKNGILTSAAAGNYANNGKFYYTVANGAPWVMTVAASLKDRIFETKLELEGEDKPIIVYDTINTFETQDSFYPLLNEKAPPESTRKRELIAERNGYSILSNYDEKDKGKDVFFEFAQINLLDEAIKEREKGAIVLGGKSYDFNESIKLQFPIASIFLDEQKKGKLWDYYKKDQSKERLAKIHKTEEIPREEGWVPTVAHLSSRGPNCDSFLANILKNSHMNNCFQPDIAAPGLDIIAGWPENVKLSSDRPANDYRHLRFNIMSGTSMACPHATGLALYLKSFKRWSPSAIKSALMTTSSEMTDDDNEFAYGSGHLNATKVRDPGLVYETHYQDYIDYLCKLGYNTEKLRSHVGSDKIDCSKTEIDHDADLNYPTMTARVPLPLDTPFKKVFHRTVTNVNDGEFTYLREINYRGDKDFDEIIVDPPQLKFSELGETKTFTVTVTGISKRNWNKNRAFMTRNTWLTWTEKDGSRQVRSPIVIYSIKGPKACM”, the protein production entry is “failed”.

“MAIATARAGGKETGTEQMYILQVTNSRSTMSKMSNVKEVNASTAFSMIKKGALLVDVRETREINRKAFGVSDYLSVPMSRFQSSLHEIPAERKVILACHSGNRSSIASRILVNSGHRKVHNLQHGIISWEREGLPVRKKESPSPLTMLFQMFRKEA”: the protein production entry is on record as “failed”.

As for “MAIGRLGYLVRGAWAGGVMLLAAGSAWAAPNWPLAPYSYYAQQQSLSDVLREFAAGFSLALQQGKGVQGVVNGRFNARTPTEFIERLSGIYGFNWFVHAGTLYVSRTSDVVTRAVDAAGASPSALRQALLQLGILDERFGWGELPAQGVAMVSGPPAYVALVEQAVAALPKGAGNQQVAVFRLKHASVSDRVIRYRDQQVVTPGMATMLRQLILGAGPGNDAALAAVAAPLRENPPVFGDAAADGNAPLAGAAQAAGRRLSEPSVQADTRLNALIVQDIPERMPIYRALIEQLDVPSTLIEIEAMIVDVNTDLVNELGVTWGAQIGTTSLGYGDLGLRPGNGLPVDGAAADLAPGTLGISVSTRLAARLRALESDGQANILSQPSILTADNLGAMIDLSDTFYIRTLGERVATVTPVTVGTSLRVTPRYIAAKGGRQVELAIDIEDGRVLQEYPIDGLPRVRKSSISTLAVVGDEQTLLIGGYNNRRDEEQVEKVPLLGDIPGLGFLFSSKSRAVQRRERLFLIRPRVVAIEGKPVFSPVAGTSQVFMSTGWGGHGSSLSIAPGEGGHTQVRHDARAGRPVRLVPDSLHVEYGEAGEASP”, the protein production entry is recorded as “failed”.

As for “MAILHGSWILNEQESCLFIWGETWRSPQVDFNFAEISLNPLALSALELSEWLQSQHQAIAKLLPQQLEKRTSKAASSVKINLLTHSQIIALPTEISQPRKKETILISPVHSAALASESDSEVYLQTWRVEGFCLPPSAAIKLLTSLPLNITSGENAFLGGDLRFWSQIARWSLDLISRSKFLPIIQRQPNNSVSAKWQVLLDSAVDGTRLEKFAAKMPLVCRTYQEIGSGESPIYIDFPSQPQDLILGFLNSAIDTQLREMVGNQPVVETRLMASLPSAVRQWLQALIAASNSIDADAVGLERLEAALKAWTMPLQYQLASKNQFRTCFELRSPEPDETEWTLAYFLQAADDPEFLVDAATIWQNPVEQLIYQQRTIEEPQETFLRGLGLASRLYPVIAPTLDTESPQFCHLKPMQAYEFIKAVAWRFEDSGLGVILPPSLANREGWANRLGLKISAETPKKKPGRLGLQSLLNFQWHLAIGGQTISKAEFDRLVALKSPLVEINGEWVELRPQDIKTAEAFFTARKDQMALSLEDALRLSSGDTQVIEKLPVVSFEASGALQELIGALTNNQAVAPLPTPKNFQGQLRPYQERGAAWLAFLERWGLGACLADDMGLGKTIQFIAFLLHLKEQDVLEKPTLLVCPTSVLGNWEREVRKFAPTLKVLQYHGDKRPKGKAFQEAVKKHDLVITSYSLIHRDIKSLQGIPWQIIVLDEAQNVKNAEAKQSQAVRQLETTFRIALTGTPVENRLQELWSILDFLNPGYLGNKQFFQRRFAMPIEKYGDAASLNQLRALVQPFILRRLKTDRDIIQDLPDKQEMTVFCGLTGEQAALYQKAVETSLAEIESAEGLQRRGMILALLIKLKQICNHPAQYLKINTLEQHSSGKLQRLEEMLEEVLAESNTYGVAGAGRALIFTQFAEWGKLLKPHLEKQLGREIFFLYGGTSKKQREEMIDRFQHDPQGPPIMILSLKAGGVGLNLTRANHVFHFDRWWNPAVENQATDRVFRIGQTRNVQVHKFVCNGTLEEKIHDMIESKKQLAEQVVGAGEEWLTELDTDQLRNLLILDRSTVIDEEAD”, the protein production result is “failed”.

These data come from a protein production outcome set (Wang et al. 2014).
